{"source": "the nanobody polyreactivity screen of Harvey et al. (2022)", "data": [{"test": "yeast display, Sf9 membrane polyspecificity reagent, FACS + sequencing; frameworks hold sequencing errors", "procedure,_shortened": "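A nanobody's polyreactivity label depends on the gate it was sorted from. Yeast display cells were stained with 10% biotinylated, detergent-solubilized Sf9 membrane reagent for 1 hour at 4 °C, enriched on streptavidin microbeads and sorted by FACS. The low and high (top ~1%) gates were set on anti-HA fluorescence for expression and streptavidin fluorescence for reagent binding.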", "values": [{"sequence": "QVQLQESGGDLEQAGGSLRLSCTASGTISDVRVMGWYRQAPGKERELVATISYVTITYYADSVKGRFTISRDSEKHRVSADDEPETGRYGGVLLRYYWGLGTQVTVSS", "polyreactivity (PSR sort gate)": "low polyreactivity"}, {"sequence": "QVQLQESGGGLEQAGGSLRKSCAANGNIFDADIVGRYRQAPGKKPELVDSITDGGITNYADSVKGRFTISRDNAKYTVYLQMNIQNPEDTAVYYCASIAYPDIPTFFDYYSYFFYWGQGTQVTVSS", "polyreactivity (PSR sort gate)": "high polyreactivity"}, {"sequence": "QVQLQESGGGLEQAGGSLRLSCAASGNISSWYPMGWYRQAPGKEREFVATIAPVATTNYADSVKGRFTISRDYAKITVYLQMNSLKPEDTAVNYCAAGPDNNDFYSYWGQGTQVTVSS", "polyreactivity (PSR sort gate)": "low polyreactivity"}, {"sequence": "QVQLQESGGGLEQAGGSLRPSCAASGSISDGVPMGWYRQAPGEERELVATTVLGATTNYADSVKGRFTISRGNAKNTVYLQMNSLKPEETAVYYCAAPLRYDKGFSYWGQGTQVTVSS", "polyreactivity (PSR sort gate)": "low polyreactivity"}, {"sequence": "QVQLQESGGGLMQAGGNLRLSCAASGYISTHYDMDWYRQAPGKERELVARIDDGAITNYADSVKGRFTISRDNAKKTVYLQMNSLKPEDTAVYYCAVYYGDEYYHDYWGQGTQVTVSS", "polyreactivity (PSR sort gate)": "low polyreactivity"}, {"sequence": "QVQLQESGGGLMQAGGSQRLSCAARGSISYYSDMGWYLQAPGKEREFVAGIGYGTTTNYADSVKGRFTTSRDNAKNTVYLQMISMKPEDTAVYYCAAYQGNGYEFYYWGQGTQVTVRS", "polyreactivity (PSR sort gate)": "low polyreactivity"}, {"sequence": "QVQLQESGGGLMQAGGSQRLSCAASGSISYYSDMGWYRQAPGKEREFVAGIGYGTTTNYADSVKGRFTTSRDNAKNTVYLQMISMKPEDSAVYYCAAYQGNGYEFYYWGQGTQVTVRS", "polyreactivity (PSR sort gate)": "low polyreactivity"}, {"sequence": "QVQLQESGGGLVKAGGSLRLSCAASGNISNHNDMGWYRQAPGKESEFVAGITAGGITNYADSVKGRFTISRDNAKNTVYLQMNSLKPEDTAVYYCAAYPDYAKSYGYWGQGTQATVSS", "polyreactivity (PSR sort gate)": "low polyreactivity"}, {"sequence": "QVQLQESGGGLVLAGGSLRLSCSASGNISVYGSMGWYRQAPGKEREFVATIAPGTNTNYADSVKDRFTISRDNAKNTVYLQMNSLKPEDTAVYYCAARHPSSAYWVGYYWYDYWGQGTQVTVSS", "polyreactivity (PSR sort gate)": "low polyreactivity"}, {"sequence": "QVQLQESGGGLVLAGGSLRLSCSASGNISVYGSMGWYRQAPGKEREFVATIDPGTNTNYADSMKDRFTISRDNAKNTVYLQMNSLKPEDTAVYYCAVEAGSDWPYRYWGQGTQVTVSS", "polyreactivity (PSR sort gate)": "low polyreactivity"}, {"sequence": "QVQLQESGGGLVQACGSLRLSCAASGYISHADEMGWYRQAPGKEHELVASISNGGSTNYADSVKGRFTMSRDNAKNTVYLQMNSLKSEDTAVYYCAAWTGQVDIHYYWGQGTKVTVSS", "polyreactivity (PSR sort gate)": "low polyreactivity"}, {"sequence": "QVQLQESGGGLVQAGDSQRLSCAASGNSFRFTHMGWYRQAPGKERELVAASNAGSTTYYADSVKGRFTISRDNAKNTVYLQMKSLKPEDTAVYYCAVYYLGSGTFGYWGQGAQVTVSS", "polyreactivity (PSR sort gate)": "high polyreactivity"}, {"sequence": "QVQLQESGGGLVQAGGCLRLSCAASGSIFTYAVMGWYRQAHGKEHELVATIDTGSSTYYADSVKGRITISRDNAKNTLYLQMNSLKPEDTAVYYCAVNTYCRVRYRYWGQGTQVTVSS", "polyreactivity (PSR sort gate)": "high polyreactivity"}, {"sequence": "QVQLQESGGGLVQAGGDLRLSCEASGNIFRDYIMGWYRQAPGKEREFVAGIDRGANTNYADSVKGRFTISRDNAKNTVYLQMNSLQPEDTAVYYCAVHTAIVPDFIYWGQGTQVTVRS", "polyreactivity (PSR sort gate)": "low polyreactivity"}, {"sequence": "QVQLQESGGGLVQAGGSLGCAASCNISTRSEMGWYRQAPGKEREFVATINSGGITNYADSLKGRFTISRDNAKNTVYLRKNSLKAEVTAVYYRAVYGYFSYPYDYWGQGTQVSVSS", "polyreactivity (PSR sort gate)": "low polyreactivity"}, {"sequence": "QVQLQESGGGLVQAGGSLGCAASGNISTRSEMGWYRQSPGKEREFVATINSGGITNYADSVKGRFTISRDNAKNTVYLRMNSLKPEDTAVYYRAVYGYFSDPYDYWGQGTQVTVSS", "polyreactivity (PSR sort gate)": "low polyreactivity"}, {"sequence": "QVQLQESGGGLVQAGGSLLLSCAASGSISGPHVMGWYRQAPGKEREFVAAINVGANTYYADNVKGRFTISRDNAKNTVYLQMNSLKPEDTAVYYCAAVYYGDIGHEYWGQGTQVTVSC", "polyreactivity (PSR sort gate)": "low polyreactivity"}, {"sequence": "QVQLQESGGGLVQAGGSLLSCAASGTISYYREMGWYRQAPGKERELVAGIGVGTITYYADSVKGRFTISRDNAKHTVYLQMNSLKPEDTAVYYCAAAYQEYDYHYYYWGQGTQVTVSS", "polyreactivity (PSR sort gate)": "low polyreactivity"}, {"sequence": "QVQLQESGGGLVQAGGSLPLSCAASGTISVHATMGWYRQATGKERELVAGITDGANTYYADSVKGRFTISRDNSQNTVYLQMNSLTPEDTAVYYCAAYYGTVVHFTYWGQGTQVTVSS", "polyreactivity (PSR sort gate)": "low polyreactivity"}, {"sequence": "QVQLQESGGGLVQAGGSLRCAASGNISTRSEMGWYRQAPGKEREFVATINSGGITNYADSVKGRFTISRDNAKNTVYLRMNCLKPEDTAVYYRAVYGYFSDPYDYWGQGTQVTVSS", "polyreactivity (PSR sort gate)": "low polyreactivity"}, {"sequence": "QVQLQESGGGLVQAGGSLRLICAASGTIFRFRYMGWHRQAPGKERELVAGINGGTTTYYADSVIGRFTISRDNAKNTVYVQMNSLKPDDTAVYNCAAGASRLTYYDYWGHGTQVTVSS", "polyreactivity (PSR sort gate)": "low polyreactivity"}, {"sequence": "QVQLQESGGGLVQAGGSLRLSCAACGNIFKYTNMGSYRQAPGKERELVATISDGASTNYADSVKGRFTISRDNAINTVYLQMNSLKPEDTAVYYCNAEGYVRFNYWGQCTQVTVSS", "polyreactivity (PSR sort gate)": "high polyreactivity"}, {"sequence": "QVQLQESGGGLVQAGGSLRLSCAASCTISQEDWMGWYRQAPGKELEFVAAIGLGSNTNYADSLKGRFTISRDNAKNTVYLQMNSLKPEDTAVYYCAVSVWQYSDHVYRGQGTQVTVSS", "polyreactivity (PSR sort gate)": "low polyreactivity"}, {"sequence": "QVQLQESGGGLVQAGGSLRLSCAASGCISVYTPMGWYRQAPGKERVLVAGINICANTYYADSVKGRFTISRDNAKNTLYLQMNSLKPEDTAVYYCAARRRPGGRYKSRVWYDYWGQGTQVTVSS", "polyreactivity (PSR sort gate)": "high polyreactivity"}, {"sequence": "QVQLQESGGGLVQAGGSLRLSCAASGIIVDADIMGWYRQAPGQERDLVASITDGGRTNYADSVKGRFTISRDNAKNTVYLQMNSLKPEDTAVYYCAAIAYPDIPTYFDYDSEYFYCGQGTQVTVSS", "polyreactivity (PSR sort gate)": "low polyreactivity"}, {"sequence": "QVQLQESGGGLVQAGGSLRLSCAASGNIFLSIFMGWYRQAPGKEREFVAGIGSGTNTNYADSVKGRFTISRDNAKNTVYLQMNSLKAEDTAGYYSAAGRYGLYYHGYWGQGTQVTVSS", "polyreactivity (PSR sort gate)": "high polyreactivity"}, {"sequence": "QVQLQESGGGLVQAGGSLRLSCAASGNISVTGIMGWYRQAPGKERELVASIGIGGTTYYADSVNGRFSISRDNAKNTVYLQMISLKPEDTALYYLAARYLYYAYSYWGQGTQVTVSS", "polyreactivity (PSR sort gate)": "low polyreactivity"}, {"sequence": "QVQLQESGGGLVQAGGSLRLSCAASGNISYRTHMGWYRQAPGKERELVASIGGGTTNYADSVKGRFTISRDNAKNTVYLQMNSLKPEDTAVYYCAVVGTTQFRHRYWGQGTQVTASS", "polyreactivity (PSR sort gate)": "high polyreactivity"}, {"sequence": "QVQLQESGGGLVQAGGSLRLSCAASGNIVDADIMGWYRQAPGKEREIVASITDGGSTNYADSLKGRFTISRDNAKNTVYQQMNSLIPEDTAVYYCAAIAYPDIPPYFDYDSDYFDWGQGTQETVSS", "polyreactivity (PSR sort gate)": "high polyreactivity"}, {"sequence": "QVQLQESGGGLVQAGGSLRLSCAASGNIVDADIMGWYRQAPGKERELVASITDGGSTNYADSVKGRFTISRDNAKNTVYLQMNSLKPVDTAVYNCAAIAYPDIPTYFDYDSEYFYWGQGTQVTVSS", "polyreactivity (PSR sort gate)": "low polyreactivity"}, {"sequence": "QVQLQESGGGLVQAGGSLRLSCAASGPISRRSTMGWYRQAPGKERELVTAITRGTNTNYADSVKGRFTISRDNAKNTESLQMNSLKPEDTAVYYGAAYGVLKPSRGDAVFHRYWGQGTQVTVSS", "polyreactivity (PSR sort gate)": "low polyreactivity"}, {"sequence": "QVQLQESGGGLVQAGGSLRLSCAASGPISRRSTMGWYRQAPGKERELVTAITRGTNTNYADSVKGRFTISRDNAKNTEYLQMNSLKPEDTAVFYCAAYGVLKPSRGDAVFHRYWGQGTQVTVSS", "polyreactivity (PSR sort gate)": "low polyreactivity"}, {"sequence": "QVQLQESGGGLVQAGGSLRLSCAASGSIFDGFNMGWYRQAPGKERECVAAISYGASTYYADSVKGRFTGSRDNAKNSVYLQMNSLKPEDTAVYYCAVYDELYHVLVYWGRGTQVTVSS", "polyreactivity (PSR sort gate)": "low polyreactivity"}, {"sequence": "QVQLQESGGGLVQAGGSLRLSCAASGSIFHLHIMSWYRHAPGKERESVAAISYGTSTYYADSVKCRFTICRDNAKNTVYLQINIPKPDDTAVYYCAALFLVSKHHHYWGEGTQVTVSS", "polyreactivity (PSR sort gate)": "low polyreactivity"}, {"sequence": "QVQLQESGGGLVQAGGSLRLSCAASGSIFLFYTMGCYRPAPVKEREFVAGITLGTTTYNADSVKGRFTISRDNVKNTVYLQMNSLNPVDSAVYYCAVAVGHYTEFWYWGQGTQVTMSS", "polyreactivity (PSR sort gate)": "high polyreactivity"}, {"sequence": "QVQLQESGGGLVQAGGSLRLSCAASGSIFQYGYMGWYRQAPGKEREFVAGIGGGTSNYADSVKGRFTISRDNAKNTVYLQMNSLKPEDTAVYYCNTDAGDYYGENYWGQGTQVTVSS", "polyreactivity (PSR sort gate)": "low polyreactivity"}, {"sequence": "QVQLQESGGGLVQAGGSLRLSCAASGSIFTQATMGWYRQAPGKERELVAAINFGSSTYYADSVKGRFTISRDNAKSTVYLQMNSLKPEDTAVYYCAVRALWYDFHDYWGQGTQVTVSS", "polyreactivity (PSR sort gate)": "high polyreactivity"}, {"sequence": "QVQLQESGGGLVQAGGSLRLSCAASGSISHYIFMGWYRQAPGKEREFVAGIGYGGTTNYADSVKGRFTISRDNAKNTVYLQMNSLKPEDTAVYYCAAVSIYWGQGTQVTVSS", "polyreactivity (PSR sort gate)": "low polyreactivity"}, {"sequence": "QVQLQESGGGLVQAGGSLRLSCAASGSISHYIFRGWYRQAPGKEPEFVAGIGYGGTTNYADSVKGRFTISRDNAKNTVYLQMNSLKPEDTAMYYCAAREATEFYLYYWGQGTQVTVIS", "polyreactivity (PSR sort gate)": "low polyreactivity"}, {"sequence": "QVQLQESGGGLVQAGGSLRLSCAASGSISNSAAMAWYRQAPGKERELVVSIGHGASSNYADSVKGRFTISRDNAKNTVYLQMNSLKPEDTAVYYCAAYPGFLDGFFYWGQSTQVTVSS", "polyreactivity (PSR sort gate)": "high polyreactivity"}, {"sequence": "QVQLQESGGGLVQAGGSLRLSCAASGSITRYYDMGWYRQAPGKEREFVAGISGGAITYYADSLKGRFTISRDNAKNTVYLQMNSLKPEDTAVYYCAADTGVYQYHSYWGQGTQVTVSS", "polyreactivity (PSR sort gate)": "low polyreactivity"}, {"sequence": "QVQLQESGGGLVQAGGSLRLSCAASGSNSILQSMGWYRQAPGKERELVAGINWGATTYYADSVKGRLTTSRDYAKNSVYLQMNSLKPEDTAVYFCAVPTYYTYPLLYWGQGTQVTVSS", "polyreactivity (PSR sort gate)": "low polyreactivity"}, {"sequence": "QVQLQESGGGLVQAGGSLRLSCAASGSNSILQSMGWYRQAPRKERELVAGINWGATTYYADSVKGRLTTSRDYAINTVYLQMNSLKPEATAVYYCAVPTYYTYPLLYWGQGTQVTVSS", "polyreactivity (PSR sort gate)": "low polyreactivity"}, {"sequence": "QVQLQESGGGLVQAGGSLRLSCAASGTIFRFRYMGWHRQAPVKERELVAGINGGTTTYYADSVIGRFTISRDNAKNTVYLQMNSLKADDTAVYNCAAGASRLTYYDYWGQGTQVTVSS", "polyreactivity (PSR sort gate)": "low polyreactivity"}]}]}
